2 molecules from patent publication US20180125988A1, “TARGETED XTEN CONJUGATE COMPOSITIONS AND METHODS OF MAKING SAME” (AMUNIX OPERATING INC., priority 2014, published 2018) can be followed below.

This test deals with HER2 (ErbB2, HER2/neu receptor) on HER2 expressing tumor cell lines (human (human tumor cell lines)) (UniProt P04626). The test is described as follows: cell-based or functional assay.

B1: XTEN432-3xMMAE (protein)
chain: SAGSPTAEAAGCGTAEAAGTSESATPESGPGSEPATSGSETPGTSESATPESGPGTSTEPSEGSAPGTSESATPESGPGSPAGSPTSTEEGSPAGSPTSTEEGSPAGSPTSTEEGTSESATPESGPGTSTEPSEGSAPGTSESATPESGPGSEPATSGSETPGTSESATPESGPGSEPATSGSETPGTSESATPESGPGTSTEPSEGSAPTAEAAGCGTAEAAGSPAGSPTSTEEGTSESATPESGPGSEPATSGSETPGTSESATPESGPGSPAGSPTSTEEGSPAGSPTSTEEGTSTEPSEGSAPGTSESATPESGPGTSESATPESGPGTSESATPESGPGSEPATSGSETPGSEPATSGSETPGSPAGSPTSTEEGTSTEPSEGSAPGTSTEPSEGSAPGSEPATSGSETPTAEAAGCGTAEAASASR
For the molecule B1, the IC50, CellTiter-Glo cytotoxicity, BT474 cells was over 300 nM; the IC50, CellTiter-Glo cytotoxicity, HCC1954 cells is over 300 nM; the IC50, CellTiter-Glo cytotoxicity, NCI-N87 cells is over 1000 nM; the IC50, CellTiter-Glo cytotoxicity, SK-BR-3 cells was over 300 nM. This molecule also returned an IC50, CellTiter-Glo cytotoxicity, SK-OV-3 cells of over 700 nM.

B2: XTEN432-3xDM1 (protein)
chain: B1 chain
Take B2: the IC50, CellTiter-Glo cytotoxicity, BT474 cells is over 1000 nM; the IC50, CellTiter-Glo cytotoxicity, HCC1954 cells was over 360 nM; the IC50, CellTiter-Glo cytotoxicity, NCI-N87 cells was over 1000 nM; the IC50, CellTiter-Glo cytotoxicity, SK-BR-3 cells is over 1000 nM. Besides, the IC50, CellTiter-Glo cytotoxicity, SK-OV-3 cells was over 700 nM.
